Columns and labels:
[1] = biological target: T1, human IL-17F homodimer (human, UniProt Q96PD4 31-163); assay: cell-based or functional assay
T1 sequence (looked up): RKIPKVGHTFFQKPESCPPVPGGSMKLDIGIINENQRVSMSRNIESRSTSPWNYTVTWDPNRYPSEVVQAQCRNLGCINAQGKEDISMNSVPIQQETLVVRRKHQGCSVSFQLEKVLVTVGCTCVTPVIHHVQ

[2] = biological target: T2, cynomolgus IL-17F homodimer, His-tagged (cynomolgus, UniProt G7P4V0 31-163); assay: cell-based or functional assay
T2 sequence: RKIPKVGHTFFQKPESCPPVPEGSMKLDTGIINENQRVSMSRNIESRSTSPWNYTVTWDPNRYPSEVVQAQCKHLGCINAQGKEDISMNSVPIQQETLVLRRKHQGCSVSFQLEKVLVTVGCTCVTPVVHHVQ

B1: 43G6 antibody (antibody, V domains shown)
VH: EVQLVESGGGLVQPGGSLRLSCAASGFTFSSYSMNWVRQAPGKGLEWVSYISSGSSTIYYADSVKGRFTISRDNAKNSLYLQMNSLRDEDTAVYYCAREGYVSGTYYNYYYGMDVWGQGTTVTVSS
VL: EIVLTQSPATLSLSPGERATLSCRASQSVSSYLAWYQQKPGQAPRLLIYDAPNRATGIPARFSGSGSGTDFTLTISSLEPEDFAVYYCQQRSNWSLTFGGGTKVEIK
[1]
  IC50 (nM), IL-6 secretion by MEF cells stimulated with IL-17F (5 ng/ml) and mTNF-α: 1.1 nM
[2]
  IC50 (nM), IL-6 secretion by MEF cells stimulated with IL-17F (5 ng/ml) and mTNF-α: 8.4 nM

B2: 22F8 antibody (antibody, V domains shown)
VH: EVQLLESGGGLVQPGGSLRLSCAASGFTFSSYAMNWVRQAPGKGLEWVSTISGRGGSIYYADSVKGRFTISRDNSKNTLYLQMNSLRAEDTAVYYCAKEEATWDFDYWGQGTTVTVSS
VL: EIVLTQSPATLSLSPGERATLSCRASQSVSSFLAWFQQKPGQAPRLLIYDASNRATGIPARFSGSGSGTDFTLTISSLEPEDFAVYYCQQRSNWPPTFGQGTKVEIK
[1]
  IC50 (nM), IL-6 secretion by MEF cells stimulated with IL-17F (5 ng/ml) and mTNF-α: 2 nM
[2]
  IC50 (nM), IL-6 secretion by MEF cells stimulated with IL-17F (5 ng/ml) and mTNF-α: 10 nM

B3: 2E12 antibody (antibody, V domains shown)
VH: EVQLVESGGGLVQRGGSLRLSCAASGFTFSSYSMNWVRQAPGKGLEWISYISSSSSAIYYADSVKGRFTISRDNAKNSLYLQMNSLRDEDTAVYYCAREGYASGRYYNYYYGMDVWGQGTTVTVSS
VL: EIVLTQSPATLSLSPGERATLSCRASQSVSSYLAWYQQKPGQAPRLLIYDASNRATGIPARFSVSGSGTDFTLTISSLEPEDFAVYYCQQRSSWSLTFGGGTKVEIK
[1]
  IC50 (nM), IL-6 secretion by MEF cells stimulated with IL-17F (5 ng/ml) and mTNF-α: 5.9 nM
[2]
  IC50 (nM), IL-6 secretion by MEF cells stimulated with IL-17F (5 ng/ml) and mTNF-α: 26 nM

B4: 21B10 antibody (antibody, V domains shown)
VH: EVQLVESGGGLVQPGGSLRLSCAASGFTFSSYSMNWVRQAPGKGLEWVSYISGGSSTIYYADSVKGRFTISRDNAKNSLYLQMNSLRDEDTAVYYCAREGYVSGTYYNYYYGMDVWGQGTTVTVSS
VL: EIVLTQSPATLSLSPGERATLSCRASQSVSSYLAWYQQKPGQAPRLLIYDAPNRATGIPARFSGSGSGTDFTLTISSLEPEDFAVYYCQQRSNWSLTFGGGTKVEIK
[1]
  IC50 (nM), IL-6 secretion by MEF cells stimulated with IL-17F (5 ng/ml) and mTNF-α: 2 nM
[2]
  IC50 (nM), IL-6 secretion by MEF cells stimulated with IL-17F (5 ng/ml) and mTNF-α: 8.7 nM

B5: 41B10 antibody (antibody, V domains shown)
VH: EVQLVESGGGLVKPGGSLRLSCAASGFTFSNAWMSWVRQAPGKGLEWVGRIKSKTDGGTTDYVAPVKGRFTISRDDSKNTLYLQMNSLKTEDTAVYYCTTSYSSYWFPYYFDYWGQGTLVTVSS
VL: DIQMTQSPSSLSASVGDRVTITCRASQGISSWLAWYQQKPEKAPKSLIYAASSLQSGVPSRFSGSGSGTDFTLTISSLQPEDFATYYCQQYNSYPITFGQGTRLEIK
[2]
  IC50 (nM), IL-6 secretion by MEF cells stimulated with IL-17F (5 ng/ml) and mTNF-α: 18 nM

B6: 5E12 antibody (antibody, V domains shown)
VH: QVQLVQSGGGLVQPGRSLRLSCAASGFTFDDYAMHWVRQAPGKGLEWVSGISWNSGTIGYADSVKGRFTISRDNAKNSLYLQMNSLRAEDTALYYCAKELYISDWDSYSYGMDVWGQGTTVTVSS
VL: not shown
[2]
  IC50 (nM), IL-6 secretion by MEF cells stimulated with IL-17F (5 ng/ml) and mTNF-α: 22 nM

B7: 5D3 antibody (antibody, V domains shown)
VH: EVQLVESGGGLVQPGRSLRLSCAASGFTFDDYAMHWVRQAPGKGLEWVSGISWNSGSRGYADSVKGRFTISRDNAKNSLYLQMNSLRAEDTALYYCAKDMVYALDVWGQGTTVTVSS
VL: EIVLTQSPGTLSLSPGERATLSCRASQSFSGSYLAWYQQKPGQAPRLLIYDTSSRATGIPDRFSGSGSGTDFTLTISRLEPEDFAVYYCQQYGTWTFGQGTKVEIK
[1]
  IC50 (nM), IL-6 secretion by MEF cells stimulated with IL-17F (5 ng/ml) and mTNF-α: 0.5 nM
[2]
  IC50 (nM), IL-6 secretion by MEF cells stimulated with IL-17F (5 ng/ml) and mTNF-α: 12 nM

B8: 1F1 antibody (antibody, V domains shown)
VH: EVQLLESGGGLVQPGGSLRLSCAASGFTFSSYVMSWVRQVPGKGLEWVSAISGRGGNTFYADSVKGRFTISRDNSKNTLYLQMDSLRAEDTAVYYCAKDDRRIAAGSFDYWGQGTTVTVSS
VL: AIQLTQSPSSLSASVGDRVTITCRASQGISSALAWYQQKPGKAPKLLIYDVSSLESGVPSRFSGSGSGTDFTLTISSLQPEDFATYYCQQFNSYPLTFGGGTKVEIK
[1]
  IC50 (nM), IL-6 secretion by MEF cells stimulated with IL-17F (5 ng/ml) and mTNF-α: 1.1 nM
[2]
  IC50 (nM), IL-6 secretion by MEF cells stimulated with IL-17F (5 ng/ml) and mTNF-α: 11 nM

B9: 28B11 antibody (antibody, V domains shown)
VH: QVQLVESGGGLVKPGGSLRLSCAASGFTFSNYYMTWIRQAPGKGLEWISYISSTGGNIYYADSVKGRFTISRDNAQNSLYLQMNSLRAEDTAVYYCARDGGVIISTAMFDYWGQGTTVTVSS
VL: AIQLTQSPSSLSASVGDRVTITCRASQGISSALAWYQQKPGKAPKLLIYDASSLESGVPSRLSGSGSGTDFTLTISSLQPEDFATYYCQQFNSYPLTFGGGTKVEIK
[1]
  IC50 (nM), IL-6 secretion by MEF cells stimulated with IL-17F (5 ng/ml) and mTNF-α: 1.2 nM
[2]
  IC50 (nM), IL-6 secretion by MEF cells stimulated with IL-17F (5 ng/ml) and mTNF-α: 6.3 nM

B10: 11C5 antibody (antibody, V domains shown)
VH: QVQLVQSGAEVKKPGASVKVSCKASGYTFTIYYLHWVRQAPGQGLEWMGIINPSGGRTNYAQKFQGRVTMTRDPSTNTVYMELSSLTSEDAAVYYCARGEFSSGWLDYWGQGTTVTVSS
VL: DIQMTQSPSSVSASVGDRVTITCRASQGISSWLAWYQHKPGKAPKLLIYAASSLQSGVPSRFSGSGSGTDFTLTISSLQPEDFATYYCQQANSFPLTFGGGTKVEIK
[1]
  IC50 (nM), IL-6 secretion by MEF cells stimulated with IL-17F (5 ng/ml) and mTNF-α: 0.4 nM
[2]
  IC50 (nM), IL-6 secretion by MEF cells stimulated with IL-17F (5 ng/ml) and mTNF-α: 2.9 nM

— US20150132314A1 (NOVIMMUNE S A, published 2015)
